Data set [1] has as its system brain metastases from melanoma. Kind of data set: Tumor volume in a melanoma brain metastasis patient, SonoCloud-1 (NCT04021420). Format: in vivo, human. From the text:
Analysis of SoniMel tumor volume of a brain metastatic patient. This patient was part of an ongoing clinical trial (NCT04021420) evaluating the combination of the immune checkpoint antibodies, ipilimumab and nivolumab, with BBB disruption employing the SC1 US device. The zone targeted by the skull implanted SC1 US emitter was modeled with a cylindrical region of interest (ROI) with a 10-mm diameter and 55-mm length. This ROI covered a part of the left-hemisphere tumoral mass and a part of its margin. The patient received administration every three weeks of 1 mg/kg of nivolumab (Brystol Myers Squibb) during 30 minutes of infusion and 3 mg/kg of ipilimumab (Brystol Myers Squibb) during 90 minutes of infusion prior to sonication. The SC1 US device was activated in combination with IV injection of microbubbles (0.1 mL/kg, SonoVue, Bracco) for a duration of 270 seconds at an acoustic pressure of 0.78 MPa, similar to the parameters used in a recent clinical trial in patients with recurrent GBM (Idbaih, A., et al., Clin Cancer Res 25, 3793-3801 (2019)). The evolution of the tumor volumes was evaluated for both sonicated and non-sonicated tumor masses using a semiautomatic active contour segmentation method (ITK Snap) (Yushkevich, P. A., et al., Neuroimage 31, 1116-1128 (2006)) using contrast-enhanced gadolinium T1w MR images with a threshold set at 1.25 times the median brain intensity. […]

Data set [2] can be described thus: Pembrolizumab concentration in plasma, glioma and peritumoral brain of GBM patients (ELISA). Format: in vivo, human. On the procedure:
Patients received additional treatment cycles with sonications in an outpatient setting in which the US device was activated by percutaneous access with a single-use transdermal needle concomitantly with the injection of 10 μL/kg of IV microbubbles (DEFINITY, Lantheus, Billerica, USA) and 200 mg of pembrolizumab and 30 mg of liposomal DOX.
Determination of the concentration of pembrolizumab in human glioma and peritumoral brain tissue Two GBM patients undergoing surgery for resection of tumor with implantation of the Sonocloud-9 US device were studied for this analysis. Pembrolizumab ELISA kit (ab237652, Abcam) was employed to determine pembrolizumab concentrations. After surgical resection, all samples were weighed. […] The rest of the experiment was done following manufacturer's kit protocol.

The conditions of data set [3]: mouse, in vivo.
Protocol: C57BL/6 mice were employed for sonication experiments in which they were anesthetized with ketamine/xylazine cocktail intraperitoneally (ketamine 100 mg/kg, xylazine 10 mg/kg).
Determination of the concentration of nivolumab in brain from C57BL/6 mice. Non-tumor bearing C57BL/6 mice were used for this experiment. […] Nivolumab ELISA kit (ab237651, Abcam) was employed to determine nivolumab concentrations in the brain and blood. Mice were anesthetized with ketamine/xylazine cocktail and treated with artificial tears once fully anesthetized. Next, mice were treated with nivolumab through retro-orbital route. The dose used for mice was calculated based on allometric scaling which considers the animal equivalent dose based on body surface area converted from the human dose of 3 mg/kg of nivolumab (Nair, A. B. et al., J Basic Clin Pharm 7, 27-31 (2016)). After treatment with nivolumab, mice were placed in the US transducer holder for sonication as described above. Intravenous NaFI (Sigma-Aldrich) previously dissolved in PBS was administered immediately after sonication at a dose of 20 mg/kg in 100 μL. 1 and 4 hours after sonication, mice were euthanized using a CO2 chamber and brains were harvested and placed in PBS. […] Absorbance of samples (set to 450 nm) was read in Cytation 5 multi-mode reader (Biotek). […]

Data on 3 substances can be found in US20260124223A1, “CANCER IMMUNOTHERAPIES” (Northwestern University, priority 2022, published 2026).

Values joined by “and” are separate entries in the source; they are usually repeats but may differ in a detail not shown here. Equal values may be shown once.

As for “ipilimumab: IgG1 anti-CTLA-4 antibody, given with nivolumab”, the “tumor mass targeted by the SonoCloud-1 (sonicated)” value in data set [1] (ipilimumab 3 mg/kg and nivolumab 1 mg/kg prior to sonication) is “began to shrink after the second sonication”. The non-sonicated tumor mass entry in data set [1] (ipilimumab 3 mg/kg and nivolumab 1 mg/kg, until GammaKnife on day 130) is reported as “continued to grow”. For pembrolizumab: anti-PD-1 antibody, the “fold increase in pembrolizumab concentration, sonicated vs non-sonicated peritumoral brain regions” value in data set [2] (2 GBM patients, SonoCloud-9) amounted to 2.076 fold. Besides, the “anti-PD-1 antibody concentration in the serum” value in data set [2] (two GBM patients, 48 hours after treatment) is 39.450 µg/mL and 45.099 µg/mL. For “nivolumab: human IgG4 antibody that binds the PD-1 receptor”, the “nivolumab concentration in the plasma” value in data set [3] was “similar”.
